Series [1] deals with T1, NGF (nerve growth factor) (human, UniProt P01138 P01138:122-241). In words: cell_activity; neurite outgrowth, NGF 1.1 nM. To be noted: tags: human NGF; chain copies: 2. Here is the method: (§1) The neurite outgrowth inhibitory activity of the aptamer obtained in Example 1 was evaluated by using Neuroscreen-1 cell, which is a subclone of PC-12 cells.
(§2) The cells (2500 cells per well) were cultured for one day in an RPMI-1640 medium containing 2.5% horse serum and 1.25% fetal bovine serum in a 96 well flat-bottom plate coated with collagen type IV. […] Two days later, the cytoplasm and nuclei were stained using Cellomics Neurite Outgrowth Kit (manufactured by Thermo Scientific), and neurite length per cell was measured by Cellomics ArrayScan VTI (manufactured by Thermo Scientific). With the neurite length per cell obtained by the addition of NGF alone as inhibitory activity 0%, and that of the cell obtained by NGF free culture for 2 days as inhibitory activity 100%, the inhibitory activity of the aptamer was calculated from the neurite length per cell obtained by culturing with the addition of NGF and the aptamer in mixture. When the inhibitory activity was 0% or below, ‘0%’ is indicated.

Series [2] concerns the target T1, NGF (nerve growth factor). In words: cell_activity; neurite outgrowth, NGF 1.1 nM; SPR binding; blocks NGF-TrkA; TF-1 IC50 8.0 nM. To be noted: tags: amine-coupled to CM5 chip in SPR; soluble in cell assays; chain copies: 2. Here is the method: as §1, §2
For series [3], the target named is T1, NGF (nerve growth factor). The experiment in a line: cell_activity; neurite outgrowth, NGF 1.1 nM; SPR binding; blocks NGF-TrkA and NGF-p75. To be noted: tags: amine-coupled to CM5 chip in SPR; soluble in cell assays; chain copies: 2. The protocol:
as §1, §2
For orientation: Surface plasmon resonance follows binding to a sensor surface in real time, without labels.

In series [4] the target is T1, NGF (nerve growth factor). In words: cell_activity; neurite outgrowth, NGF 1.1 nM; TF-1 IC50 6.2 nM. To be noted: tags: human NGF; chain copies: 2. Here is the method: as §1, §2
In series [5] the target is T1, NGF (nerve growth factor). In words: cell_activity; neurite outgrowth, NGF 1.1 nM; TF-1 IC50 5.3 nM. To be noted: tags: human NGF; chain copies: 2. Here is the method:
as §1, §2

For series [6], the target named is T1, NGF (nerve growth factor). In words: cell_activity; neurite outgrowth, NGF 1.1 nM; SPR binding; TF-1 IC50 5.4 nM. To be noted: tags: amine-coupled to CM5 chip in SPR; soluble in cell assays; chain copies: 2. Here is the method:
as §1, §2

Series [7] deals with T1, NGF (nerve growth factor). In words: cell_activity; neurite outgrowth, NGF 1.1 nM; SPR binding; blocks NGF-TrkA and NGF-p75; TF-1 IC50 1.3 nM. To be noted: tags: amine-coupled to CM5 chip in SPR; soluble in cell assays; chain copies: 2. The protocol: as §1, §2
For series [8], the target named is T1, NGF (nerve growth factor). The experiment in a line: cell_activity; neurite outgrowth, NGF 0.38 nM; not tested by SPR; TF-1 IC50 <0.1 nM. To be noted: tags:; soluble in cell assays; chain copies: 2. The protocol:
as §1, §2

Series [9] addresses T1, NGF (nerve growth factor). In words: cell_activity; neurite outgrowth, NGF 0.38 nM; TF-1 IC50 0.065 nM. To be noted: tags: human NGF; chain copies: 2. Here is the method:
as §1, §2

Series [10] concerns the target T1, NGF (nerve growth factor). The experiment in a line: cell_activity; neurite outgrowth, NGF 0.38 nM; TF-1 IC50 0.075 nM. To be noted: tags: human NGF; chain copies: 2. The protocol:
as §1, §2

The target of series [11] is T1, NGF (nerve growth factor). The experiment in a line: cell_activity; neurite outgrowth, NGF 0.38 nM; TF-1 IC50 0.348 nM. To be noted: tags: human NGF; chain copies: 2. Here is the method: as §1, §2
For series [12], the target named is T1, NGF (nerve growth factor). In words: cell_activity; neurite outgrowth, NGF 0.38 nM; SPR binding; TF-1 IC50 0.078 nM. To be noted: tags: amine-coupled to CM5 chip in SPR; soluble in cell assays; chain copies: 2. The protocol:
as §1, §2

The target in series [13] is T1, NGF (nerve growth factor). In words: cell_activity; neurite outgrowth, NGF 0.38 nM; SPR binding; TF-1 IC50 >0.3 nM. To be noted: tags: amine-coupled to CM5 chip in SPR; soluble in cell assays; chain copies: 2. Here is the method:
as §1, §2

22 molecules from patent US20130052176, “APTAMER FOR NGF AND USE THEREOF” (SHIONOGI & CO., LTD, published 2013) can be followed below.

Substitutions are numbered along the chain they refer to.

T1 sequence (P01138 122-241, one chain of several): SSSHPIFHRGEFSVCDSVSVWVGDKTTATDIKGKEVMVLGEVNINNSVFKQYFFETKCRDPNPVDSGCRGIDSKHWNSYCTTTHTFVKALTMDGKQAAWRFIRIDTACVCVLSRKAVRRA

B1: aptamer ID 48 (ssRNA)
RNA: GGGAGAACUUCGACCAGAGUCGAUAACGAACAAAACUCCCAAAUAUGUGCGCAUAC
modifications: 2'-F all pyrimidines
In series [1], B1 gave an IC50 of 1.8 nM.

B2: aptamer ID 55 (ssRNA)
RNA: GGGAUAAAAAUAGAGUUUGAUAAACACCUGUAUUAAAACCC
modifications: 5' cholesterol; 3' idT; 2'-F pyrimidines and a37,a38; 2'-OMe other purines except 2'-OH at 4,7,30
The molecule B2 came in with an IC50 in series [2] of 9.8 nM.

B3: aptamer ID 56 (mixed)
mixed: B2 RNA with U21T
modifications: 5' cholesterol; 3' idT; 2'-F pyrimidines (except dT at 21) and a37,a38; 2'-OMe other purines except 2'-OH at 4,7,30
In series [3], B3 had an IC50 of 4.1 nM.

B4: aptamer ID 57(8) (mixed)
mixed: B2 RNA with U16T, U21T
modifications: as ID 57 (5' cholesterol; 3' idT; dT16,dT21; 2'-F other pyrimidines and a37,a38; 2'-OMe purines except ribo a4,a7,g30) plus PS between 24 and 25
As for B4, the IC50 in series [4] is < 3 nM.

B5: aptamer ID 57(2) (mixed)
mixed: B2 RNA with U16T, U21T
modifications: as ID 57 (5' cholesterol; 3' idT; dT16,dT21; 2'-F other pyrimidines and a37,a38; 2'-OMe purines except ribo a4,a7,g30) plus PS between 16 and 17
Regarding B5, the IC50 in series [4] was < 3 nM.

B6: aptamer ID 57(7) (mixed)
mixed: B2 RNA with U16T, U21T
modifications: as ID 57 (5' cholesterol; 3' idT; dT16,dT21; 2'-F other pyrimidines and a37,a38; 2'-OMe purines except ribo a4,a7,g30) plus PS between 23 and 24
In the case of B6, the IC50 in [5] was < 3 nM.

B7: aptamer ID 57(6) (mixed)
mixed: B2 RNA with U16T, U21T
modifications: as ID 57 (5' cholesterol; 3' idT; dT16,dT21; 2'-F other pyrimidines and a37,a38; 2'-OMe purines except ribo a4,a7,g30) plus PS between 22 and 23
For the molecule B7, the IC50 in series [5] is < 3 nM.

B8: aptamer ID 57 (mixed)
mixed: B2 RNA with U16T, U21T
modifications: 5' cholesterol; 3' idT; dT16,dT21; 2'-F other pyrimidines and a37,a38; 2'-OMe purines except ribo a4,a7,g30
In the case of B8, in series [1], the IC50 was < 3 nM.

B9: aptamer ID 60 (mixed)
mixed: B2 RNA with U16T, U21T, A23U
modifications: 5' cholesterol; 3' idT; 2'-F pyrimidines (except dT at 16,21) and a37,a38; 2'-OMe other purines except 2'-OH at 4,7,30
As for B9, the half-maximal inhibitory concentration (IC50) in [6] is < 3 nM.

B10: aptamer ID 61 (mixed)
mixed: B2 RNA with U16T, U21T
modifications: 5' cholesterol; 3' idT; 2'-F pyrimidines (except dT at 16,21) and a38; 2'-OMe other purines except 2'-OH at 4,7,30,37
With B10, the 50% inhibitory concentration (IC50) in series [7] was < 3 nM.

B11: aptamer ID 26(16) (ssRNA)
RNA: GGGAGACUCGCCAGAGUUGAAAGAAACCCAAAUAAGUGUGCGCAC
modifications: 2'-F pyrimidines; 2'-OMe purines except 2'-OH at 3,5,19-22,24,26; 5' PEG40GS2 (ssH linker); 3' idT
Regarding B11, in series [8], the IC50 is < 0.1 nM.

B12: aptamer ID 26(71) (ssRNA)
RNA: B11 RNA
modifications: 5' PEG80TS4 via C6 amino linker (Tb); 3' idT; 2'-OMe purines except ribo g3,g19,a20,a26; 2'-F c27,c28,c29,c41,c43; other pyrimidines 2'-OMe
B12: the IC50 in series [9] worked out at 0.279 nM.

B13: aptamer ID 26(55) (mixed)
RNA: B11 RNA
modifications: 5' and 3' idT; 2'-OMe purines except ribo g3,g19,a20,a26; 2'-F c27,c28,c41,c43; dC29,dT39; other pyrimidines 2'-OMe
B13: the IC50 in series [10] worked out at 0.087 nM.

B14: aptamer ID 26(69) (ssRNA)
RNA: B11 RNA
modifications: 5' PEG40TS4 via ssH linker; 3' idT; 2'-F all pyrimidines; 2'-OMe purines except ribo g3,g19,a20,a26
For the molecule B14, in [11], the IC50 turned out to be 0.157 nM.

B15: aptamer ID 26(17) (ssRNA)
RNA: B11 RNA
modifications: 2'-F pyrimidines; 2'-OMe purines except 2'-OH at 3,5,19-22,24,26; 5' idT; 3' PEG40GS2 (amino C-6 linker)
Regarding B15, in series [8], the IC50 was < 0.1 nM.

B16: aptamer ID 26(54) (mixed)
RNA: B11 RNA
modifications: 5' and 3' idT; 2'-OMe purines except ribo g3,g19,a20,a26; 2'-F c28,u39,c41,c43; dC27,dC29; other pyrimidines 2'-OMe
In series [9], B16 came in with an IC50 of 0.097 nM.

B17: aptamer ID 26(61) (ssRNA)
RNA: B11 RNA
modifications: 2'-F pyrimidines except 2'-OMe at 7,8,9,11,12,17,18,33,37,45 and LNA at c29; 2'-OMe purines except 2'-OH at 3,19,20,26; 5' idT and 3' idT
For B17, the IC50 in series [12] was 0.112 nM.

B18: aptamer ID 26(72) (mixed)
RNA: B11 RNA
modifications: 5' PEG80TS4 via C6 amino linker (Tb); 3' idT; 2'-OMe purines except ribo g3,g19,a20,a26; 2'-F c28,c41,c43; dC27,dC29; other pyrimidines 2'-OMe
Molecule B18 returned an IC50 in series [10] of 0.219 nM.

B19: aptamer ID 26(37) (ssRNA)
RNA: B11 RNA
modifications: 2'-F pyrimidines except 2'-OMe at 7; 2'-OMe purines except 2'-OH at 3,19,20,26; PS between 18 and 19; 5' idT and 3' idT
For the molecule B19, the 50% inhibitory concentration (IC50) in series [13] stood at 0.181 nM.

B20: aptamer ID 26(36) (ssRNA)
RNA: B11 RNA
modifications: 2'-F pyrimidines except 2'-OMe at 7; 2'-OMe purines except 2'-OH at 3,19,20,26; PS between 3 and 4; 5' idT and 3' idT
Turning to B20, in series [13], the IC50 came to 0.211 nM.

B21: aptamer ID 26(68) (ssRNA)
RNA: B11 RNA
modifications: 5' PEG80TS2 via ssH linker; 3' idT; 2'-F all pyrimidines; 2'-OMe purines except ribo g3,g19,a20,a26
Regarding B21, the IC50 in series [11] was 0.128 nM.

B22: aptamer ID 26(53) (mixed)
RNA: B11 RNA
modifications: 2'-F pyrimidines except 2'-OMe at 7,8,9,11,12,17,18,33,37,45; 2'-OMe purines except 2'-OH at 3,19,20 and dA at 26; 5' idT and 3' idT
With B22, the IC50 in series [12] was 0.128 nM.

By IC50 is commonly meant the point on the concentration scale where inhibition reaches its midpoint. The low end stands for greater potency in that assay, the high end for weaker potency in that assay.
